Assay results as given in patent US20200339648A1 (University of Washington, published 2020).
Where a chain is given by its changes, count along the chain named.

T1: mouse IL-2Rβγc on murine cells (CTLL-2 T cells, primary CD4+ T cells) (mouse, UniProt P16297 27-539; P34902 23-369)
T1 sequence (looked up) 1: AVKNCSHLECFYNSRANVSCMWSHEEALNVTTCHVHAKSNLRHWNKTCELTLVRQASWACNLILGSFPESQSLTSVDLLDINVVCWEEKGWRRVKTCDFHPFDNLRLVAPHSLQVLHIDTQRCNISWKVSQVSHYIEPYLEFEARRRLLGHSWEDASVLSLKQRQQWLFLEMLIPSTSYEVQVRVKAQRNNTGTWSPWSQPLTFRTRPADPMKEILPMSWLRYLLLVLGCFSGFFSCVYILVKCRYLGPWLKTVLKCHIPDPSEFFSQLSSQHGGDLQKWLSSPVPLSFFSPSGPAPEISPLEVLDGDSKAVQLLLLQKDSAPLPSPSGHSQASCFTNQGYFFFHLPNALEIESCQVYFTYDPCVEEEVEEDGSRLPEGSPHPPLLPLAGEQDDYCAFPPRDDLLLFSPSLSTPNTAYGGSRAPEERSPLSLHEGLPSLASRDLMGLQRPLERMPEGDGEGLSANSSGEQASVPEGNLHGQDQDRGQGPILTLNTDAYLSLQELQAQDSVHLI
T1 sequence (looked up) 2: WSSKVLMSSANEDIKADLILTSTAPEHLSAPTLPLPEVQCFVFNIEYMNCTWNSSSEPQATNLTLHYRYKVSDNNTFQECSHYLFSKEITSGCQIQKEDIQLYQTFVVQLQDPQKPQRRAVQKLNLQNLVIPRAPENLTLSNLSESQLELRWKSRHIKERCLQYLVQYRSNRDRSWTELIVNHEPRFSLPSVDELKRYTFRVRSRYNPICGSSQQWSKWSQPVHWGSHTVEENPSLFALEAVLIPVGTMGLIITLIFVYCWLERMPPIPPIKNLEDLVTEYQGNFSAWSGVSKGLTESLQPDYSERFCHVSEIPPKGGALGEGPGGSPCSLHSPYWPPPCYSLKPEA

T2: mouse IL-2 receptor βγc heterodimer (mIL-2Rβγc), soluble (mouse, UniProt P16297 27-240; P34902 23-263, biotin on the C-terminal biotin acceptor peptide)
T2 construct: extracellular domain; also called MmIL-2Rβγc; mIL-2Rβνc
T2 sequence 1: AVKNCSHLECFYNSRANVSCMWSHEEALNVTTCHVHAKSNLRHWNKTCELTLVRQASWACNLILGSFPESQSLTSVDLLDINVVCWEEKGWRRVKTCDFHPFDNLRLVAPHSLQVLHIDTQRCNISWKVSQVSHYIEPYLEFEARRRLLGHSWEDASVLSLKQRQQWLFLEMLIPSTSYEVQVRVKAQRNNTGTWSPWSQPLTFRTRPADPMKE
T2 sequence 2: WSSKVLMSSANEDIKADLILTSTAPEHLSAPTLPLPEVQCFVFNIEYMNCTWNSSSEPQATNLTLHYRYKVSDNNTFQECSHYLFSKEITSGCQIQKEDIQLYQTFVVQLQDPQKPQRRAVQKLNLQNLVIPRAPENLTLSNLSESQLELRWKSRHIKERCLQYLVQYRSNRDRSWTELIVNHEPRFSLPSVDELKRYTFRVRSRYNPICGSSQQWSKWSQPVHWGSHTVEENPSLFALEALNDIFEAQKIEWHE

T3: human IL-2 receptor βγc heterodimer (hIL-2Rβγc), soluble (human, UniProt P14784 27-240; P31785 23-254, biotin on the C-terminal biotin acceptor peptide)
T3 construct: also called HsIL-2Rβγc; hIL-2Rβνc
T3 sequence 1: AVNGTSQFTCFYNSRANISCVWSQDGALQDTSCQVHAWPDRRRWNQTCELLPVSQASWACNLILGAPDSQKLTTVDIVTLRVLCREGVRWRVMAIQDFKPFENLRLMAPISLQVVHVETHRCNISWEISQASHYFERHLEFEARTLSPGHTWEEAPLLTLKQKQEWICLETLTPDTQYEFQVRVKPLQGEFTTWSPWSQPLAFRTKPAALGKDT
T3 sequence 2: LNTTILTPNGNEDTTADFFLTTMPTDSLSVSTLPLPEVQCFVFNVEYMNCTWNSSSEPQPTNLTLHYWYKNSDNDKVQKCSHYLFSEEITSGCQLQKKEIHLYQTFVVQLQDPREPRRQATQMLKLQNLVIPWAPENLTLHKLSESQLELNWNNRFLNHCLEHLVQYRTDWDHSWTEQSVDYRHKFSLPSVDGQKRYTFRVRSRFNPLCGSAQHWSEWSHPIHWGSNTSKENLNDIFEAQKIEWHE

T4: mouse IL-2 receptor β subunit (mIL-2Rβ) (mouse, UniProt P16297 27-240, biotin on the C-terminal biotin acceptor peptide)
T4 construct: extracellular domain; Biotinylated form for SPR; also called MmIL-2Rβ; murine IL-2Rβ
T4 sequence: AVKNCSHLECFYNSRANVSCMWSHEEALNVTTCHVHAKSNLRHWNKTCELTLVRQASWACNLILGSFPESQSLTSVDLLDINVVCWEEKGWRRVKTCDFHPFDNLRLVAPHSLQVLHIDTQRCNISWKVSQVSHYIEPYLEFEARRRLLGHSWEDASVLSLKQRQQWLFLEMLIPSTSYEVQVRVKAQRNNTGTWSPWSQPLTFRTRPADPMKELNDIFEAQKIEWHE

B1: G2_neo2_40_1F_seq26 (designed binder)
chain: TKKKYQLLIEHALLDALMILNLWSESNEKLNRIITTMQSWIFTGTYDPDKAEELEKLAKEIEDEARERGIDTEDYMSNLRVILKELS
B2: G2_neo2_40_1F_seq29_S8 (designed binder)
chain: EDYYSNLKLILEELAREMERNGLSDKAEEWRQWKKIVERIRQIRSNNSDLNEAKELLNRLITYIQSQIFEVLEGVGETDQEKKEESWKKWELHLEHALLDVLMLLND
B3: G2_neo2_40_1F_dsn29 (designed binder)
chain: B2 chain with L9V, V71I, L72S, G74R, V75I, G76R, E91Q, H93L
notes: E. coli, N-terminal 6xHis tag and thrombin site
B4: G1_neo2_40_1F_M3 (designed binder)
chain: STEKTQHAAEDALRDALMLRNLLNEPNEKLARIITTMQSWQFTEKIDGDGAQELAKEVEELQQEHEVRGIDVEDYASNLKVILLQLA
B5: G1_neo2_40_1F_M2 (designed binder)
chain: B4 chain with E3K, K4N, H7L, R14L, V67E
B6: G1_neo2_40_1F_M1 (designed binder)
chain: B4 chain with H7L, D11H, R20K, N21H, E44G, Q85H
B7: G2_neo2_40_1F_seq12 (designed binder)
chain: TEKKLQLLVEHALLDALMILNLWSESNEKLNRIITTMQSWIFTGRIDPDKAEELAKLVEELREEARERGIDTEDYVSNLKVILKELS
B8: G2_neo2_40_1F_dsn40 (designed binder)
chain: PEKKRQLLAEHALLDALMILNIIRTNSDNTESKLEDYISNLKVILEEIARLMESLGLSDEAEKAKEAMRLADKAGSTASEEEKKEAMNRVITWAQSWIFN
notes: as for B3
B9: G2_neo2_40_1F_seq27_S24 (designed binder)
chain: TNKKAQLHAEFALYDALMLLNLSSESNERLNDIITWLQSIIFTGTYDPDMVKEAVKLADEIEDEMRKRKIDTEDYVVNLRYILQELA
B10: G2_neo2_40_1F_seq27 (designed binder)
chain: B9 chain with N2K, H8L, F11H, Y14L, D32R, K69G, V77S, Y81V
B11: G1_neo2_40_1F_H1 (designed binder)
chain: STKKTQLLIEHALLDALDMSRNLPEPNEKLSRIITTMQSWIFTGKIDGDGAQQLAKEVEELEQEHEKRGEDVEDEASNLKVILLELA
B12: G1_neo2_40_1F_H3 (designed binder)
chain: B11 chain with D18N, S20R, R21K, N22K, T36D, E70G, E75Y
B13: G1_neo2_40_1F_H2 (designed binder)
chain: B11 chain with I9L, D18H, S20R, Q53E, E70R, E75D
B14: G1_neo2_40_1F_H5 (designed binder)
chain: B11 chain with D18H, N22K, Q53H, E70G, D71E
B15: G1_neo2_40_1F_H4 (designed binder)
chain: B11 chain with I9L, D18H, N22E, S31N, T36D, Q53D, E70G, E75Y
B16: G2_neo2_40_1F_seq04 (designed binder)
chain: TTKKIQLLVEHALLDALMILNLSSESNEKLNRIITTLQSWIFRGEIDPDRARELAKLLEEIREEMRKRGIDTEDYVSNMIVIIRELA
B17: G2_neo2_40_1F_dsn30 (designed binder)
chain: PEKKRQLLLEHILLDALMLLNLLETNPQNTESKFEDYISNAEVIAEELAKLMESLGLSDEAEKFKKIKQWLREVWRIWSSTNWSTLEDKARELLNRIITTIQSQIFY
notes: as for B3
B18: G2_neo2_40_1F_seq16 (designed binder)
chain: TKKKIQLLVEHALLDALMILNLSSKSNEKLNRIITTMQSWIFNGTIDPDRARELAKLVEEIRDEMEKNGIDTEDYVSNLKVILEELA

Columns and labels:
[1] = molecular target: T1, mouse IL-2Rβγc on murine cells (CTLL-2 …); assay: cell-based or functional assay
[2] = molecular target: T2, mouse IL-2 receptor βγc heterodimer …; assay: SPR, equilibrium titration; IL-2Rγ on streptavidin chip, saturating IL-2Rβ in solution
Experimental: (§1) Less than 100 response units (RU) of each ligand was immobilized to minimize mass transfer effects. […] Surface regeneration for all interactions was conducted using 15 s exposure to 1 M MgCl2 in 10 mM sodium acetate pH 5.5. SPR experiments were carried out in HBS-P+ buffer (GE Healthcare) supplemented with 0.2% bovine serum albumin (BSA) at 25° C. and all binding studies were performed at a flow rate of […] to prevent analyte rebinding. Data was visualized and processed using the Biacore T100 evaluation software version 2.0 (GE Healthcare). Equilibrium titration curve fitting and equilibrium binding dissociation (KD) value determination was implemented using GraphPad Prism assuming all binding interactions to be first order. Biolayer interferometry: binding data were collected in a Octet RED96 (ForteBio, Menlo Park, Calif.) and processed using the instrument's integrated software using a 1:1 binding model. […] Analyte proteins were diluted from concentrated stocks into binding buffer. After baseline measurement in binding buffer alone, the binding kinetics were monitored by dipping the biosensors in wells containing 100 nM of the designed protein (association) and then dipping the sensors back into baseline wells (dissociation).

[3] = molecular target: T2, mouse IL-2 receptor βγc heterodimer …; assay: affinity maturation by yeast display for human and mouse IL-2Rβνc
Experimental: (§2) The vector was linearized by 100 fold overdigestion by NdeI and XhoI (New England Biolabs) and then purified by gel extraction (Qiagen). The genes included 50 bases of overlap with the vector on both the 5′ and 3′ ends such that homologous recombination would place the genes in frame between the AGA2 gene and the myc tag on the vector. Yeast were grown in C-Trp-Ura media prior to induction in SGCAA media as previously described. […] After approximately 30 minutes, cells were washed again in chilled buffer, and then incubated on ice for 5 minutes with FITC-conjugated anti-c-Myc antibody (1 uL per 3×10⁶ cells) and streptavidin-phycoerythrin (1 uL per 100 uL volume of yeast). Yeast were then washed and counted by flow cytometry (Accuri C6) or sorted by FACS (Sony SH800).

[4] = molecular target: T3, human IL-2 receptor βγc heterodimer …; assay: as above
Experimental: as §2

[5] = molecular target: T4, mouse IL-2 receptor β subunit (mIL-2Rβ); assay: SPR, equilibrium titration; biotinylated IL-2Rβ on streptavidin chip
Experimental: as §1

Row | Binder | EC50 (CD25+) pSTAT5, murine T (CTLL-2, CD25+) cells [1] | Kd [2] [µM] | binding result [3] | binding result [4] | Kd [5] [µM] | binding result [5]
1 | B1 | 1.06 nM | 0.0278 |  |  |  | 
2 | B2 |  |  | binds | binds |  | 
3 | B3 | 0.48 nM | 0.0382 |  |  |  | 
4 | B4 | 80 pM | 0.0648 |  |  | 0.402 | 
5 | B5 | 3.11 nM | 0.886 |  |  | 2.6 | 
6 | B6 | 7 pM | 0.0043 |  |  | 0.214 | 
7 | B7 | 1.74 nM | 0.0391 |  |  |  | 
8 | B8 | 0.5 nM | 0.0692 |  |  |  | 
9 | B9 |  |  | binds | binds |  | 
10 | B10 | 0.24 nM | 0.0136 |  |  |  | 
11 | B11 | 37.4 nM | 2.65 |  |  | 6.8 | 
12 | B12 | 35.2 nM | 3.83 |  |  |  | no binding
13 | B13 | 9.38 nM | 0.964 |  |  | 68.3 | 
14 | B14 | 84.7 nM | 5.12 |  |  | 45.3 | 
15 | B15 | 0.93 nM | 0.392 |  |  | 10.1 | 
16 | B16 | 1.95 nM | 0.08 |  |  |  | 
17 | B17 | 7.61 nM | 0.925 |  |  |  | 
18 | B18 | 2.2 nM | 0.0715 |  |  |  | 
